# Reference: US20130005646A1 (Novo Nordisk, published 2013)
# Starred links: 1 amine or outer side, 2 acyl side, 3 side chain; linkers in the order of their positions; H or OH if unused. Positions of bridges follow the written chain, without caps; N, C: chain ends. *: point of attachment. C20 diacid = O=C(O)CCCCCCCCCCCCCCCCCCC(=O)*; C18 diacid = O=C(O)CCCCCCCCCCCCCCCCC(=O)*; γGlu = O=C(O)[C@H](CCC(=O)[*:2])N[*:1]
# T1: rat amylin 3(a) receptor (rat calcitonin(a) receptor + rat RAMP3) (rat, UniProt P32214 25-516; Q9JJ73 23-147)
# T1 sequence (looked up) 1: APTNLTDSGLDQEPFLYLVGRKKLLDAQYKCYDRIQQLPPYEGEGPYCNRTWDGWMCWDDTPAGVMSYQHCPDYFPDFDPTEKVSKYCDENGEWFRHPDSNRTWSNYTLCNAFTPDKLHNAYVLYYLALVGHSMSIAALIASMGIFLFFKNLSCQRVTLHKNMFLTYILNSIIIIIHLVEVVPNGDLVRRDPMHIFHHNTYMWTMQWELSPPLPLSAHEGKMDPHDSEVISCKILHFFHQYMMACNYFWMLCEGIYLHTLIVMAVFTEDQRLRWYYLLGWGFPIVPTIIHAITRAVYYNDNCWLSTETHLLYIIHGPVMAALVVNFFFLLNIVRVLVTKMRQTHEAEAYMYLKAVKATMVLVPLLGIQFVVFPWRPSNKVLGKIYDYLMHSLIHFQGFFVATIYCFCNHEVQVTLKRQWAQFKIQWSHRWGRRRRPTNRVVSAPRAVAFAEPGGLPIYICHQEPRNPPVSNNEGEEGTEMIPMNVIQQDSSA
# T1 sequence (looked up) 2: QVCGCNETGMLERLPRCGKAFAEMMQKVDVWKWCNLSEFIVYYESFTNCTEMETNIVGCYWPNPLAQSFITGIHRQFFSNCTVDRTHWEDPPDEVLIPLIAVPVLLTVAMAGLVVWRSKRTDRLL
# T2: human amylin 3(a) receptor (human calcitonin receptor + RAMP-3) (human, UniProt P30988 25-474; O60896 24-148)
# T2 sequence (looked up) 1: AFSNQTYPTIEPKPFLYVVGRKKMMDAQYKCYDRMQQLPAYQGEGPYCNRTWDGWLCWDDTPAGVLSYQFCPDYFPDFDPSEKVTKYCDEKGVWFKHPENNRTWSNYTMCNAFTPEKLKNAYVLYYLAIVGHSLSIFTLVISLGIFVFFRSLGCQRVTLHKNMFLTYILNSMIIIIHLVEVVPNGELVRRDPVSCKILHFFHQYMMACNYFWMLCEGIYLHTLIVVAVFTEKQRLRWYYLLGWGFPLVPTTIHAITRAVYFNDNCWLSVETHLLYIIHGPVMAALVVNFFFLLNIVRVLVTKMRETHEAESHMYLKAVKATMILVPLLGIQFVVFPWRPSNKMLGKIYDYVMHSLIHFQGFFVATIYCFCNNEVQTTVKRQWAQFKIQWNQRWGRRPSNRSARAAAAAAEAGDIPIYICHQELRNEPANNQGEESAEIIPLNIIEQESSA
# T2 sequence (looked up) 2: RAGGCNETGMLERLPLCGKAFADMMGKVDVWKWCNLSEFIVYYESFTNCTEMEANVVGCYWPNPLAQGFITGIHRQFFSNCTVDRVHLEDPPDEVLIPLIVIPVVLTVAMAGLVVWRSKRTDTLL
# T3: human calcitonin (a) receptor (human, UniProt P30988 25-474)
# T3 sequence (looked up): T2 sequence (looked up) 1
# T4: rat calcitonin (a) receptor (rat, UniProt P32214 25-516)
# T4 sequence (looked up): T1 sequence (looked up) 1
# B1: N-alpha-[(S)-4-Carboxy-4-(19-carboxynonadecanoylamino)butyryl]-Glu-[Glu14,Arg17,His35]-pramlintide (peptide)
# peptide: {C20 diacid-γGlu}-EKCNTATCATQRLAEFLRHSSNNFGPILPPTNVGSHTY-NH2
# modifications: disulfide 3-8
# SMILES: CC[C@H](C)[C@H](NC(=O)[C@@H]1CCCN1C(=O)CNC(=O)[C@H](Cc1ccccc1)NC(=O)[C@H](CC(N)=O)NC(=O)[C@H](CC(N)=O)NC(=O)[C@H](CO)NC(=O)[C@H](CO)NC(=O)[C@H](Cc1c[nH]cn1)NC(=O)[C@H](CCCNC(=N)N)NC(=O)[C@H](CC(C)C)NC(=O)[C@H](Cc1ccccc1)NC(=O)[C@H](CCC(=O)O)NC(=O)[C@H](C)NC(=O)[C@H](CC(C)C)NC(=O)[C@H](CCCNC(=N)N)NC(=O)[C@H](CCC(N)=O)NC(=O)[C@@H](NC(=O)[C@H](C)NC(=O)[C@@H]1CSSC[C@H](NC(=O)[C@H](CCCCN)NC(=O)[C@H](CCC(=O)O)NC(=O)CC[C@H](NC(=O)CCCCCCCCCCCCCCCCCCC(=O)O)C(=O)O)C(=O)N[C@@H](CC(N)=O)C(=O)N[C@@H]([C@@H](C)O)C(=O)N[C@@H](C)C(=O)N[C@@H]([C@@H](C)O)C(=O)N1)[C@@H](C)O)C(=O)N[C@@H](CC(C)C)C(=O)N1CCC[C@H]1C(=O)N1CCC[C@H]1C(=O)N[C@H](C(=O)N[C@@H](CC(N)=O)C(=O)N[C@H](C(=O)NCC(=O)N[C@@H](CO)C(=O)N[C@@H](Cc1c[nH]cn1)C(=O)N[C@H](C(=O)N[C@@H](Cc1ccc(O)cc1)C(N)=O)[C@@H](C)O)C(C)C)[C@@H](C)O
# B2: N-alpha-[(S)-4-Carboxy-4-(19-carboxynonadecanoylamino)butyryl]-Glu-[Glu14,His17,His35]-pramlintide (peptide)
# peptide: {C20 diacid-γGlu}-EKCNTATCATQRLAEFLHHSSNNFGPILPPTNVGSHTY-NH2
# modifications: disulfide 3-8; not fully specified; printed as N-alpha-[(S)-4-Carboxy-4-(19-carboxynonadecanoylamino)butyryl]-Glu-[Glu14,His17,His35]-pramlintide
# B3: N-alpha-[(S)-4-Carboxy-4-(17-carboxyheptadecanoylamino)butyryl]-[Glu14,His17,His35]-pramlintide (peptide)
# peptide: {C18 diacid-γGlu}-KCNTATCATQRLAEFLHHSSNNFGPILPPTNVGSHTY-NH2
# modifications: disulfide 2-7; not fully specified; printed as N-alpha-[(S)-4-Carboxy-4-(17-carboxyheptadecanoylamino)butyryl]-[Glu14,His17,His35]-pramlintide
# B4: N-alpha-[(S)-4-Carboxy-4-(19-carboxynonadecanoylamino)butyryl]-[Glu14,His17,Pro37]-pramlintide (peptide)
# peptide: {C20 diacid-γGlu}-KCNTATCATQRLAEFLHHSSNNFGPILPPTNVGSNTP-NH2
# modifications: disulfide 2-7; not fully specified; printed as N-alpha-[(S)-4-Carboxy-4-(19-carboxynonadecanoylamino)butyryl]-[Glu14,His17,Pro37]-pramlintide
# B5: N-alpha-[(S)-4-Carboxy-4-(19-carboxynonadecanoylamino)butyryl]-[Glu14,Arg17,His35]-pramlintide (peptide)
# peptide: {C20 diacid-γGlu}-KCNTATCATQRLAEFLRHSSNNFGPILPPTNVGSHTY-NH2
# modifications: disulfide 2-7
# SMILES: CC[C@H](C)[C@H](NC(=O)[C@@H]1CCCN1C(=O)CNC(=O)[C@H](Cc1ccccc1)NC(=O)[C@H](CC(N)=O)NC(=O)[C@H](CC(N)=O)NC(=O)[C@H](CO)NC(=O)[C@H](CO)NC(=O)[C@H](Cc1c[nH]cn1)NC(=O)[C@H](CCCNC(=N)N)NC(=O)[C@H](CC(C)C)NC(=O)[C@H](Cc1ccccc1)NC(=O)[C@H](CCC(=O)O)NC(=O)[C@H](C)NC(=O)[C@H](CC(C)C)NC(=O)[C@H](CCCNC(=N)N)NC(=O)[C@H](CCC(N)=O)NC(=O)[C@@H](NC(=O)[C@H](C)NC(=O)[C@@H]1CSSC[C@H](NC(=O)[C@H](CCCCN)NC(=O)CC[C@H](NC(=O)CCCCCCCCCCCCCCCCCCC(=O)O)C(=O)O)C(=O)N[C@@H](CC(N)=O)C(=O)N[C@@H]([C@@H](C)O)C(=O)N[C@@H](C)C(=O)N[C@@H]([C@@H](C)O)C(=O)N1)[C@@H](C)O)C(=O)N[C@@H](CC(C)C)C(=O)N1CCC[C@H]1C(=O)N1CCC[C@H]1C(=O)N[C@H](C(=O)N[C@@H](CC(N)=O)C(=O)N[C@H](C(=O)NCC(=O)N[C@@H](CO)C(=O)N[C@@H](Cc1c[nH]cn1)C(=O)N[C@H](C(=O)N[C@@H](Cc1ccc(O)cc1)C(N)=O)[C@@H](C)O)C(C)C)[C@@H](C)O
# B6: N-alpha-[(S)-4-Carboxy-4-(19-carboxynonadecanoylamino)butyryl]-[Glu14,His17,His35]-pramlintide (peptide)
# peptide: {C20 diacid-γGlu}-KCNTATCATQRLAEFLHHSSNNFGPILPPTNVGSHTY-NH2
# modifications: disulfide 2-7
# SMILES: CC[C@H](C)[C@H](NC(=O)[C@@H]1CCCN1C(=O)CNC(=O)[C@H](Cc1ccccc1)NC(=O)[C@H](CC(N)=O)NC(=O)[C@H](CC(N)=O)NC(=O)[C@H](CO)NC(=O)[C@H](CO)NC(=O)[C@H](Cc1c[nH]cn1)NC(=O)[C@H](Cc1c[nH]cn1)NC(=O)[C@H](CC(C)C)NC(=O)[C@H](Cc1ccccc1)NC(=O)[C@H](CCC(=O)O)NC(=O)[C@H](C)NC(=O)[C@H](CC(C)C)NC(=O)[C@H](CCCNC(=N)N)NC(=O)[C@H](CCC(N)=O)NC(=O)[C@@H](NC(=O)[C@H](C)NC(=O)[C@@H]1CSSC[C@H](NC(=O)[C@H](CCCCN)NC(=O)CC[C@H](NC(=O)CCCCCCCCCCCCCCCCCCC(=O)O)C(=O)O)C(=O)N[C@@H](CC(N)=O)C(=O)N[C@@H]([C@@H](C)O)C(=O)N[C@@H](C)C(=O)N[C@@H]([C@@H](C)O)C(=O)N1)[C@@H](C)O)C(=O)N[C@@H](CC(C)C)C(=O)N1CCC[C@H]1C(=O)N1CCC[C@H]1C(=O)N[C@H](C(=O)N[C@@H](CC(N)=O)C(=O)N[C@H](C(=O)NCC(=O)N[C@@H](CO)C(=O)N[C@@H](Cc1c[nH]cn1)C(=O)N[C@H](C(=O)N[C@@H](Cc1ccc(O)cc1)C(N)=O)[C@@H](C)O)C(C)C)[C@@H](C)O
# Key:
# Experiment in all cases: cell-based or functional assay
# [1] = target: T1, rat amylin 3(a) receptor (rat …)
# [2] = target: T2, human amylin 3(a) receptor (human …)
# [3] = target: T3, human calcitonin (a) receptor
# [4] = target: T4, rat calcitonin (a) receptor
Binder,Amylin receptor rat EC50 [1] [pM],Amylin receptor human EC50 [2] [pM],CTa receptor human EC50 [3] [pM],CTa receptor rat EC50 [4] [pM]
B1,63,116,606,2230
B2,643,299,352,4970
B3,23,56,60.5,148
B4,160,62,53.7,76
B5,510,111,387,2840
B6,262,152,163,673
